From the DeepSol protein solubility set

Test: soluble on expression in E. coli; label from the status in PepcDB or PDB records

| Sequence | soluble on expression in E. coli |
| --- | --- |
| MSGSYDEASEEITDSFWEVGNYKRTVKRIDDGHRLCNDLMSCVQERAKIEKAYAQQLTDWAKRWRQLIEKGPQYGSLERAWGAMMTEADKVSELHQEVKNSLLNEDLEKVKNWQKDAYHKQIMGGFKETKEAEDGFRKAQKPWAKKMKELEAAKKAYHLACKEERLAMTREMNSKTEQSVTPEQQKKLVDKVDKCRQDVQKTQEKYEKVLEDVGKTTPQYMEGMEQVFEQCQQFEEKRLVFLKEVLLDIKRHLNLAENSSYMHVYRELEQAIRGADAQEDLRWFRSTSGPGMPMNWPQFEEWNPDLPHTTAKKEKQPKKAEGATLSNATGAVESTSQAGDRGSVSSYDRGQTYATEWSDDESGNPFGGNEANGGANPFEDDAKGVRVRALYDYDGQEQDELSFKAGDELTKLGEEDEQGWCRGRLDSGQLGLYPANYVEAI | soluble |
| MSLSDLSAFAVTQKWPAQFPEWIQLYSLPTPNGVKVSVMLEEIGLPYEAHRVSFETQDQMTPEFLSVSPNNKIPAILDPHGPGDQPLALFESGAILIYLADKSGQLLAQESAARYETIQWLMFQMGGIGPMFGQVGFFNKFAGREYEDKRPLERYVNEAKRLLGVLDKHLGGREWIMGERYTIADIATFPWIRNLIGFYEAGELVGIDNFPEVKRVLAKFVARPAVIRGLEIPKVSEGHHHHHH | soluble |
| MKLANTKGERKLEQKLYYTDAYKQDFTTKVIKQDYDKDGNLYVILNETVFYPTGGGQPHDTGTLNGIAVLGVEEVDEEIRHFIAEQLHTEEVEGKINWERRFDHMQQHAAQHILSAAFWDYFNIPTIGFHLGKETVTIDLETENLHAETVEKAVQIANKIVFENHPILIKWMNLEEAKTLPLRKEPTMTENIRVVMIENFDYNGCGGTHPKRTGEVGPIQVLGWERNKGGIRLTFIAGWRTLKLMGQQQQIMKDVSKQLNSSEADIPAKVAQLLTSQKENKKAMQTMTEKLLYTEANELLQQPTKIHAGILISKVFTNRSMQEIAKLSAIITEQQEHAITYFVIENEDKLQCILACGKTVTLDMNALLKEALPTIEGKGGGNKKSARGGGKAMMSGDEFLNQLISSLQSAV | not soluble |
| MAHHHHHHMAQSLVWRYLGPEDTHRCLDAPDVPSVRNLLVEIDDGMDGKLINCRNYNKGQLMIVLDMLAHLIVFTKTCSMSLEKVSTIVGIMLELHRESMSNQYTRSQSYHRLRELMLLHSVPRPPFSCGIFSVADVQHIDEYLLLSYFRHYKMYVYAFVPQRLANIHSVSVGHNHCVPPLGLPALTTATPRAEWIAKVEDTHRQMEERQMEVEDVRSAEYEEEWLKHRYLNGTHYSEGLREQLQSIKRDVSDKALNQLDLIEARLVEIEKKVEIVQQRQDGKGGKRKK | not soluble |
| MPHPCLSCGACCAYFRVSFHWSEADPALGGNVPIELTEPLRIHERVMHGTSQSHPRCIALDAEIGYRSRCTIHERRPSVCAAVPASLEFGTRSQQCDTSRRAHGLHLLTEADWAGVTNTERNPLPNELEHHHHHH | soluble |
| MGSDKIHHHHHHMQTLLITSSFDKTCDYIQVKFPELNYFRLNVDKFSSYKLEIIADGFRIECGEHRLFSSECSSIYFRKPVFENLDGNIDVQYHNFVHKESYSLIEGLIESFSGRCLSKPSVMRRANNKVFQIMLAKSVGFLMPQLSITNDEIVLKKWAKDDAIVKPLAIGTVEYKTKKEFVQTNRLSSEKDTSALKYAPVYLQKFVDKDYEVRVTAINGQFFPARIDASNPVDWRKPNTETLFTKCVLPENIEQQCRTYMYKSSMDFGCFDFLVKDNVWYFLEMNANGQWGWLDNLFEGKISDAIATYLKSGLKNAHC | not soluble |
| MGSDKIHHHHHHMIASKSKQLVYNGRFTTQKTTGVQRVARELIAALIKFQPQDPVTVLVPPRPGVAVSGAKTVEVGFYKGVVWEQLILPLFARRGRIVNLGNSASIFLGNQIIYMHDAAVFDTPAHFSRPFRVWYRIMFWILARTSVCVLTNSRFSRDRLAHHCGVSAEKIRVVPLGADHLDALEPDTSVLDKHALTPDRFVLAVSSMNPTKNFGRLIAAFRQIGDPSVDLVIVGMQNTTVFGKHDPVGAPEPNIKYVGYISDEQLKALYQNAACFLYPSIYEGFGIPPLEAMRYGCPALVGKSAALPEVCADAALYCDPYSQDDIARKLRSLLDSPELRAELKRKGIAHAEQYRWSRSAEMMKAIFETL | not soluble |
| MGSDKIHHHHHHMNVSIRLPRFEFDDKILEQGAEISRRLNQLRMEKFPPNATKTLRTFSMAEVAHYLGVSQNNLKRLHLEGKGPLPDQSPSGRRSYTATQMLELRQFLDQHGRTEVKKYVPHRKLGDKLQVVAVVNFKGGSGKTTTAAHLAQHLALTGHRVLAIDLDPQASLSALHGFQPELDRNLSLYEAIRYDDERRSIADVIIPTNFPGLDIIPANLELQEYEYDTPLAMQDKTSSAGRQFFTRMAKALSEVDDRYDVVVVDCPPQLGYLTLTAMSAATSVLITVHPQMLDLMSMSQFLLMLGGILKTIKAAGAAIELDWFRYLITRYEPTDIPQAQMVGFMQSMLAGQILENPMLKSTAISDAGLTKQTLYEVEKSAFTRSTYDRALESLDAVNAEIVTLIHRAWGRS | not soluble |
| MRQWTAIHLAKLARKASRAVGKRGTDLPGQIARKVDTDVLRKLAEQVDDIVFISGTNGKTTTSNLIGHTLKANNIQIIHNNEGANMAAGITSAFIMQSTPKTKIAVIEIDEGSIPRVLKEVTPSMMVFTNFFRDQMDRFGEIDIMVNNIAETISNKGIKLLLNADDPFVSRLKIASDTIVYYGMKAHAHEFEQSTMNESRYCPNCGRLLQYDYIHYNQIGHYHCQCGFKREQAKYEISSFDVAPFLYLNINDEKYDMKIAGDFNAYNALAAYTVLRELGLNEQTIKNGFETYTSDNGRMQYFKKERKEAMINLAKNPAGMNASLSVGEQLEGEKVYVISLNDNAADGRDTSWIYDADFEKLSKQQIEAIIVTGTRAEELQLRLKLAEVEVPIIVERDIYKATAKTMDYKGFTVAIPNYTSLAPMLEQLNRSFEGGQS | not soluble |
| MSLQFEGDTITYVGTGRPASDEIIDATGKVVMPGFINTHAHVGMSASKGLFDDVDLERFLDMTFKYDSQRTEEGIFNSARLGMYEMINSGITSFVDLYYSENVIARAAEQVGIRAFLSWVTLDREFTTQKGDPLDNAENFIRSHQNMRFVKPSVGVQGIYVASDETYQRAKEIAERYDTIMHMHLSETRKEVYDSVKKIGERPIEHLDKIGVLSSRVIAAHCVWATYHEAKLLGKNGVNVSWNAVSNFKLATGGVPPVPEMLDAGVNITIGTDSNGSNNSLNFFEAMKFSALTVKNARWDASIIKSQQILDFATIDAAKALRLNAGSIEVGKKADIVILDARRPELIPTDKNNVVNNIVYSTNPASVDSVIIDGVFRKKGGRLIGFDEGGVASANVFVEGHHHHHH | not soluble |
| MSGDDYMGAMALLGIKPDTDPLSIKRAYRRLLSRHHPDKIAGSGANAQQVRVATEKTSELHNAYRVVKARRGFALEHHHHHH | not soluble |
| MKSLRFQSVFDIIGPVMIGPSSSHTAGAVRIGKIVSSIFDDTPTEVEFQLFNSFAKTYRGHGTDLALVAGILGMDTDDPEIPNSLEIAHKRGIKIVWTIQKDSNAPHPNTTKITVKNAHKTISVTGISIGGGNIQVTELNGF | not soluble |
| RGKDITVWFQRLLDRMTDFFSSLSGRRKVCSKPRFRVRRTTNPAAKKSGTDPKIRETKTSIDEILDKIRISGYASLTAEEKRHLFDQSKRL | not soluble |
| MITMKIEDVYIWDINARWLGVTPYQLMENAGASVARVIEEKFGKNLKIAVFCGTGNNGGDGFVAARHLSYENDVTVFLIGEEVKIRSEEAKLNWNILKNLDFVKIKVLKDSSQIRELDLSEFDIIVDALLGAGTRGKPREPIKSAIEKINEYSGKVKIVSIDLPSGYPSEIRVKADFAVTFQWDKEEFKDFKRIIAKIGYPKELKYLVGPAHVKFAYKRKGEHKGQNGKLLIIGGSENYYGAPVLAASAAKHLVDLVFLLLPQNAARRVNDPDLIVREVDGLNFTPEHIKSALELVEKVDAIVIGPGIGVREETKEFVKGIIERVEKPIVVDADGLKIIAEFKDILKGKEIVLTPHAGEFKLLFGEKVPEDLVEKGKVVMRRAKEIGATILLKGKYDVISDGKVWLYNKTGNRGMTTGGTGDVLAGTVGAFLALGNKALKAAAAGAFLVGFAGDLVMEEKGEAFTARDVAEKIPIALKKIIEF | soluble |
| MGCVPRIEFGCSSQSLTLSWNLRAWNLCRLNTISHFQKLPYPLVASTRKHYKNSLLLKRFLVGVGTEESSLSEDLLDESLSRPLTSDELKSLLIDTERSKLVKKLSEANQQNRFLKRQEHEITNIKTELALMELEVQALVKLAEEIANLGIPQGSRKISGKYIQSHLLSRLDAVQKKMKEQIKGVEAAQSKEVHVFWIGMAESVQVMGSFDGWSQREDLSPEYSALFTKFSTTLFLRPGRYEMKFLVDGEWQISPEFPTSGEGLMENNVLVVE | soluble |
| MGSDKIHHHHHHMNIELADLRLFVMIAECGNLTHGAARAFLSPPAASARIKAMEQEIGQQLLVRKNKGVELTPSGDALLRHARLVLRQFDFLTDDMTNAQMGHLRIYANTTGVTEFLPAILARFLADHPGVRVDLQERLTQEIIRAVADGTADIGIISGTEGRDGLERLRFATDRLMLAVPSGHHLAHHDQVSLEQTLAFEHIALHDGSTLLDFLRRQLRRSAFDRQLRIQVRSFEAMCRLIEAGVGIGVVPESAALRHLQTMDITLLALADDWAVRDRSILVRRWADLPQSAQRLIDLLVEKEAGGAEV | not soluble |
| MLFDSHAHYDNKRFDEDRFEVIKKAYDSGVSYILNAAADMASSLETVSLTRKFDFIYGAVGVHPHEVAKMSDDDIEKLKDFAKEEKIVAIGEIGLDYYYDFSPREQQKLWFARQINLAKELNLPIIVHDRDAHKDVLDIVKAEQAKDVGGVFHCYSGSVEMLKDVLENNFYISVGGTLTFKNAKRVVEVVERVPLDRLLIETDCPYLTPEPHRGKRNDSSYVRLVAEKIAKIRGMSFEEVAEITTNNAKRLFGIK | not soluble |
| MGNKRVLITGATGFIGGYLVDEALRRQYEVWAAVRPHSDRSRLTDSRIRFVEIDYRDPSDIARLADKIAPEGESAWHLVIHNAGITKARDTSLFREINAEQTKRFLIGLQGAKHCPERFVLMSSMGSYGAPPDDCQPLSSSSVPKPTTAYGESKLLAEQYVQTFVTIPYTIIQPTGVYGPHDQDYLMAIRSVDKGFDFSTGNTPQTLTFIYAEDLASAVFIAAEHPDAAGQKYIVSDGKEYTDIEFGRMIQHLLDRKNVCHLRIPLPLVKATCYIGQKWADISGTLTPLNLDKYAIIAQRNWRCDSSPIRAIGFSPRYNLEQGLAETIRWARTTGQIRR | not soluble |
| GFQSNAMKQETPITLHVKSVIEDDGNQEVIEFRTTGFYYVKQNKVYLSYYEEHDLGKVKTIVKVSEGEVLVMRSGAVKMNQRFVTGASTIAKYKMSFGELELKTSTKSIQSDLDEEKGRISIAYDMHVGDEQEHLHNMTITYEGGTHA | soluble |
| SVCLFALQIPHDEAQLLALLQQVVQSHPSFKIEVRRRDKLFACNSSAFKKYLALQLWEKYQLKGKLVDPAITVHVEVTKEHFLIISES | not soluble |
| MGHHHHHHSHMNGRADFREPNAEVPRPIPHIGPDYIPTEEERRVFAECNDESFWFRSVPLAATSMLITQGLISKGILSSHPKYGSIPKLILACIMGYFAGKLSYVKTCQEKFKKLENSPLGEALRSGQARRSSPPGHYYQKSKYDSSVSGQSSFVTSPAADNIEMLPHYEPIPFSSSMNESAPTGITDHIVQGRNFS | soluble |
| MSSKNEQTPKVPAELDPLNETIFREQMYAIYQVCQYPSKEQYAEWAQTYQIQQRRIRKWFDNRRTRDRERRKRKGDDNEDSSEISKRGRVTCGLDYKNHEEESTDDFQDDIEELDNSQFEMAKVSSIRDELKDVKSESPPVMEQSFHLRTVQHVSTPRRDRIIPESQTLFVPAGCSLDYEKWTPAEFLQWTSNFLSSAQAMDIIKSQEISGDTMESFFDDPDFRKETGMPYGPFQTIKKHAATVINRFNGYE | not soluble |
